Experiment: label from the status in PepcDB records
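Note: failed if final PepcDB status was selected cloned or expressed and not failed if soluble or beyond.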

Sequence	protein production
MTAWSLLHVGVFASVVMVVGWLWQRRSGNAGPVDVLWAGCLALAAPYCAWMADGALLPRALVAVLGGVWGARLALHLGVRVFGDPHEDGRYRALREHWNGSQGKFLGFFLAQAVVVVLFAVPFLAAASNPHAEWSAWTGIAIVVWLIAVGGEALADRQLSAHKANPANRGKTCRTGLWRYSRHPNYFFEFVHWFAYLALAVGAGPWPVALCALGPVVMFVFLYRFTGIPYTEQQALRSRGEDYAQYQRSTSAFFPLPPSS	failed
MTAYWIAHVTIHDMQQYQEYMKLAPAAFQKYGAKFLARGGESVCVEGQAYQRHVIIEFPDLATAQQCYDSEEYKQARLAREGCADVMISFVEGLPTN	failed
MTCPEQAIEHDDMNVVVDVEKCKFCMDCIPVCPTGSIDNWRVVDTPYSLEDQYGWMDLPPQEDVAGDEAGLEALDDAMAALLAEAHKGAGGKSRAPATASKPTINLYTLGKPAEARVTGNYRLTAESSDSDVRHIILDFGGQPFPVLEGQSIGIIPPGTDEAGNPHLPRLYSVSSPRDGERPNFNNLSLTVKREPHGICSNHVCDLKPGDTVRVTGPFGATFLMPSDPAAHLLMICTGTGSAPFRAFTMRRQRESPKLRNSLTLVFGARRPQELPYFGPLAKVPEQFMAKHFAFSRQDGAPKHYVQDRLRAEADRVGELLADPLTHVYVCGLKAMEQGVEEAFKDIARAQGIDWTGLRDRMRDEGRYHVETY	failed
MTDATVGDEAAAPTVVRLDASCTTQEVEAGEYYHATVNGVVEYGAFVDLSEHVSGLIHESTYSGDPDLAVDDDVIVHLSAVRDNGDLSFEFVDPEEYRTEQRSHAYERTTADAVGSRIGDTVHIEGEVVQIKQTAGPTVFRVRDETSAIPCTAFEDAGVRAHPGVEVGDIVHVSGDADDREGTTQLEVDAFEVLSGGDSADVARRLDAALAEQADPVDVDALVDWPALEQLLPDLRSVARTLRRAVLEGRPIRMRHHADGDGMCASLPVQYALRQFIEDTHQDEDAARHLLKRLPSKAPYYEMEDATRDLNFALEDRARHGQKLPLLLMLDNGSTEEDTPAYKTLDNYDIPIVVVDHHHPDPGAVDPLVDEHVNPYLHGEDYRITTGMLCVELARMIYPGITSDLEHVPAVAGLSDRSKADAMTDYLDLARDAGYDESFLQQMSEALDYEAYMLRYDHGTQVIADILNVDGDAQRHRELVPFLDRLASEAVAEQLDATRSHVEHERVASGANLYRIDVENHAHRFTYPRAGENNRRDPRPQGRGNRGAGDHHRLRPGLRGAPVGRRAPGHPHDGRRTQRRTPWGRRLRRRPPGRRLDPVRSRDA	failed
MTDDPTLWAQRLEEAVVGLGANGDRSHDLAHAKRVLRTALALADGVEDQGEGPVDRLVLTAAAYLHDIVAIEKNDPRRSLASRLSAAKAREILGGLDFPAGRQDGVAHAIEAHSFSAGIAPRSLEARILQDADRMESLGAIGVARTFYVAGRLGSALFHDDDPLAFARPLDERAYALDHFFTKLLTLPATMTTAPGRAMAGERAELLRAFAEALAQEVSGAAAPGPRPARPSDGEAPSPLPVWPGSGTRTR	failed
MTDDVDDGWAASAAAWIIEQGEDGDYGRRFVLDAPMRARIEGRGFRNALDVGCGEGRFCRIMQRAGIRTTGIDPTEALLARARELDPRGDYRLGRAETMDIDACFDLVVSYLSLIDIPDLGTAIAKMVGALRPGGTLLIANLTSFNTAGQPDGWARDRKGEMRFAIDHYMDERPIWLSWRGIRLQNWHRPLGTYMTLLLDHGLQLRLFVEPEPTSGDPRRNDLHRRVPYFHMMEWQKPA	failed
MTDESSVRTPKALPDGVSQATVGVRGGMLRSGFEETAEAMYLTSGYVYGSAAVAEKSFAGELDHYVYSRYGNPTVSVFEERLRLIEGAPAAFATASGMAAVFTSLGALLGAGDRLVAARSLFGSCFVVCSEILPRWGVQTVFVDGDDLSQWERALSVPTQAVFFETPSNPMQSLVDIAAVTELAHAAGAKVVLDNVFATPLLQQGFPLGVDVVVYSGTKHIDGQGRVLGGAILGDREYIDGPVQKLMRHTGPAMSAFNAWVLLKGLETLAIRVQHSNASAQRIAEFLNGHPSVRWVRYPYLPSHPQYDLAKRQMSGGGTVVTFALDCPEDVAKQRAFEVLDKMRLIDISNNLGDAKSLVTHPATTTHRAMGPEGRAAIGLGDGVVRISVGLEDTDDLIADIDRALS	not failed
MTDIHPREILICTIAKLLDGVRHVAVGASSPIPASGAMLLRALKQQAGETGPRISILGSVEHNFFTNGSAELFDCAGQGRIDAFFLGGGQIDGQGNINLVGTGEYPQTQVRWPGSFGSAYLYYVVPRVILFREEHTPRAMVEKVDFISAPGLSDEGVYRPGGPIALLTSKALFRFDKNRRGFELESVHPGYDLAAIKEATGFKFAHDDVPAQTALPDPQVLKLLRERVYDEVAETYPDFAAQMRREIAQPLPRAS	failed
MTDIRKAATLVVIRDGANKDIEVLVVRRAKTMRFLPGFVAFPGGAADPSDAEMAKRAFGRPVCAEDDDDPALAVTALRETAEEIGWLLAVRDGEGTKMDTPLAPDEQADLCKGGDALSAWLSARGLAFDLGLLRRIGRFVTPPTQPVRFDTRFFLCVGQHLGEPRLHGAELDAALWTPARDMLTRIQSGELPAVRPTIAVLKALVACPNAEIAMSTLSIGPLPPPAPRA	not failed
MTDQRFKIVFSGELMPDASLETVKDNLARLFKSEPGKIDALFGGRPVVLKRELPEAEAERYLTALRQAGANAYKEVDLAASLSLVETPDHNPQVAEETPAQDLPPMTCPKCGHEQPSGAECSACGVIIEKYLARQAQLGENAAPAATAAAGASPYTPPSAQVGDTLPEFGELNVFTTNGRIGRLRYLGWSMAMTLCFLVIMGLGFLLGETVGVAVTALASIAFIVIAVMIGVQRLHDLGWSGWLWLLNFVPFVGSVFGILMLVLPGSTGANRYGPPPPANSTGVKVLASLIILLPIVGIIAAIALPSYQGYLERANYDGGASAPADPYTTDEQAAAAAAEADEAATAAAEAMEDDDQQ	failed
MTDQTKPSWTADRGADLLGALFFLTRLPTPTTHTPPPFTRAVWAFPLAGALVGLIGALAVGGAQALGLSPTLAALLGVSVMALVTGAMHEDAVADIADGFGGGRTRERVLEIMRDSRVGAFGVTALVLVLALRVAALAALAGGPWAMAALVCAAGLGRGAAVLMLGLLPPARTDGLGASFGRPQQASLAFALILCLVLAVVLLPGAAPAVALVGMVAPTLYLAWRAKVRIGGQTGDVAGAAALIGETLALVGLSAMLGAAP	failed
MTDTLFKIMFEGQVRDGVEPETAKANLAGLFKSETAAVQKLFNGEPIALKRGLVHAEAERYIEALKEAGVEARIEPDQAISFNLNEVGNQASPWTPARQAPQDASPYAPPKAQVGSEHYGHSTLKVFTTNGRIGRLRFLAWSMVQCVALVALIALALIVLNWSLVAGGLLIAVLVVVFVTIGVMIGVQRLHDLGWSGWLLLLNLVPFVGSLFPFLIMLLPGTRGANQYGPPPPPNTRGVKVLGIIWIAMIPVISVASIYYSIGKLAEAELALQTDEYEQSLPYDDEQEPGSALNAPADVIEEPQDQNDKQ	failed
MTDWIQNLMDSMGYLGILLLMVLENVFPPIPSELIMPSAGFAAARGDMSLGMVVLMGTLGSVIGTLPLYYIGRAFGEDKLVAWADKHGKWLTLSGKDIKKADAWFDRYGAGAVLFGRMVPGIRSLLSLPAGMSEMPLPKFLIYSAIGSALWSAALAYAGYALGENYDRVEQYVAPVSKVIVGLLVIGAAAWFIRRKREQGSRTGG	failed
MTEAPRKITDDPYGAWHLIRRLVMEQASAYWRRYALAFGLMAIAAAATSGSAFLLGKVINQAYVDRDLQGIMFWSVVTLVVFSLKGAATYGQSVILTQIKNAILANNQRRMFHKLMSESIGFFSQRHSSEFLARLTAGANSVTEVLNLLINAIGRDLLSLIGLVIVMVVQDPFMALFGLLVAPPAAFVVRKLVKRVKGLALTQFTGNAQILETMQESLQGIRTVKAFSLEKTMSDRIDANIAAVQANADKMAKVSNRSSPLMETLGGFAVAASLMYGGYRVVATGATPGEFFSFLTAFLLAYEPAKRLARLNIELNSGLVGARMLLEIIDSPPSEPDDSHKPALQLTEARVEFDHVSFAYRPDEPVLNAMSFVAEPGKMTALVGPSGGGKSTVLALLLRLYEVQSGEIRIDGQSTSTVSRESLRRQTAYVGQDVYLFRDTVRANIAFGKLGATEDEIVAAAKAACAHDFIMGFPLGYDTPVGEHGAQLSGGQRQRIAVARALLRDAPIVLLDEATAALDSESEKLVQEAIDRLARGRTTIVIAHRLHTIMHADSILVVEAGEIVEQGRHDDLLRRSGRYASFFRLQQRHATPLAPADATA	failed
MTEEQLQALRAAISVCRRCRDEPARGEGHRLPHEPRPVAVLSASARILIAGQAPGLRVHESGLPFNDASGDRLRQWLSVDRAAFYDQRNFAIVPMGFCFPGYDRHGSDLPPRSECAPLWRQRAMDAMPQIELVLAVGHYAQRWHLGTDCPKSMTETVRNWQRYAKRNSGISVLPLPHPSWRNTGWLRRHPWFEAELLPFLRERVQALTI	failed
MTEFKVVHTICPYCGTGCGIDLVVKDGKVVDSHPFKRHPVNEGKVCIKGNYCYEFVHSEDRLTKPLIKKNGEFIEATWDEALDLIAGKLKQYSPEEVAFFSCARGTNEESYALQKFARTVMKTNNVDHCARI	failed
MTEIATIEKPAQHGATTRLIDIVFPGDTNHHGTLFGGTGLALMDRVAFIAATRFGRTPFVTASCERIDFRQPARIGHIVEFTARPVKAGRRSLTVEVEMVAETIIGRQQHTCTRGIFHMVAIPEGEDAASYVLPELLTEETPDPSDAVTMVEIVFPDQANSAGRMFGGEAIAYMTKAAFVAASRYCGKLVVLASSERIDFARAIEIGEIVEAQAHVERVGRSSMSIQTKLWSENLLTGERHITATGHFTMVAVDKDHRPATIRDPAEAFSLEKGGA	not failed
MTEITGGTLVLVGADHPVAHLDVTAFEASVTHDVMAASVAGTGLGVSTATAAGLSHLVVDAGVAQPVQGARSVRIRGERGDLRHADAMTPVQVEALLRDGQALGAEASHDGLVCLGEVGVGNTTIATALACAMTGLGPDEAVGLGAGSDTAMVERKAEIIKAALTRTHTDPNDPERLLAALGGPEFAVLAGVCLGAAEAGSPVVLDGLATSVAALIATKFSPGLHGWLVASQASREQVHHIVLAELGLEALMELRMRAGLEHHHHHH	failed
MTEKTIRVLVAGLGNMGRSHALAYHNNPGFEIVGLVNRSTPELAAELQGYTIHPDFMTALAELKPDLCSINTYSDSHADYAVAAFEAGCDVFVEKPLATTVADAERVVAAAGKAGRKLVIGYILRHHPSWMKLIGEARKLGPPYVFRMNLNQQSSGPTWATHKSLMRTTSPIVDCGVHYVDVMCQITDARAVEVRGMGLRMSDEIAADMYNYGHLQVLFEDGSVGWYEAGWGPMISETAFFVKDVMSPKGAVSIVMDPNAKSDDIDTHTKTSVIRLHTAETGPDGKFIRPDQDMTMEGEPGHQALCDLEQAFMLRAIREDLDLDRHMADAVASLRICLAADESVRTGQPVRL	failed
MTELAQLQASAEQAAALLKAMSHPKRLLILCMLSGSPGTSAGELTRITGLSASATSQHLARMRDEGLIDSQRDAQRILYSIKNEAVNAIIATLKNVYCP	not failed
MTELDQFWPACLARLEAELSSQQFNTWIKPLTAEAGDEGIALFAPNRFIMQFIKDRFLPRIEELAVELVGELPVELRLGAPTARPAAPVAGNSQPKAKEPAKAAASAPAAPSPAKQAAVKAIGGSHESTRLNPSFTFDTLVTGKGNQLARAAAMQIAENPGDQAYNPLFVYGGVGLGKTHLIQAIGNHVFQKNPQAKIRYIHAERYVADIMRAYQHKAFDEFKRYYHSLDLLLIDDIQFFAGKNRTQEEFFYAFNALIEGGKQVIMTCDSYPKQIEGMEERLISRFSWGLTVEIQPPELEMRVAILMKKAEADSIKLEHNVAFFIAQNVRSNVRELEGALKRVVAYARFTSQNITLELVKEALKDILAAGNRQVTVDAIQKTVAEYYKIKLSDMHSKKRSRDIARPRQVAMALAKELTQLSLPNIGDAFGGRDHTTVLHACKTITEMRASDADIAHDYEALLSMLRNLEHHHHHH	failed

Source: a protein production outcome set (Wang et al. 2014)
